Laboratory results reported in publication PMC9020740.

How the values were obtained:
[1] = target: Canine parvovirus nonstructural protein 2 (NS2), made in infection (canine parvovirus (CPV) type 2); test: proximity ligation; PLA (Duolink In Situ Orange Mouse/Rabbit) in wt CPV-infected NLFK cells, fixed 24 h after infection; anti-NS2 antibody paired with an antibody against the host protein; nuclear PLA foci counted from 3D confocal data, n = 15
[2] = target: NS2-EGFP (canine parvovirus nonstructural protein 2 fused to EGFP) (canine parvovirus (CPV) type 2); test: proximity ligation; PLA (Duolink In Situ Orange Mouse/Rabbit) in noninfected HeLa cells transfected with NS2-EGFP, fixed 20 h after transfection; anti-GFP paired with an antibody against the host protein; nuclear PLA foci counted from 3D confocal data, n = 15

Row | Substance | PLA foci/nucleus (PLA foci/nucleus) [1] | PLA foci/nucleus (PLA foci/nucleus) [2]
1 | SMARCA5 of NLFK (feline kidney) cells (natural protein) | 6.5 | 
2 | core histone macro-H2A.1 (from UniProt O75367 1-369) (natural protein) |  | 135
3 | nucleosome-remodeling helicase matrix-associated actin-dependent regulator of chromatin A5 (from UniProt O60264 1-1052) (natural protein) |  | 55
4 | SSRP1 of NLFK (feline kidney) cells (natural protein) | 3.7 | 
5 | macro-H2A.1 of NLFK (feline kidney) cells (natural protein) | 40 | 
6 | structure specific recognition protein SSRP1 (FACT complex subunit) (from UniProt Q08945 1-709) (natural protein) |  | 7.5
7 | MDC1 of NLFK (feline kidney) cells (natural protein) | 22 | 
